From PMC13101046 (Journal of molecular biology, 2025)
Values joined by “and” are separate entries in the source; they are usually repeats but may differ in a detail not shown here. Identical values can stand only once.

T1: RecB (E. coli, UniProt P08394 1-1180)
T1 construct: RecB, E. coli, full length (134 kDa); also called full length RecB; source: purified as part of the RecBCD hetero-trimer
T1 sequence (looked up): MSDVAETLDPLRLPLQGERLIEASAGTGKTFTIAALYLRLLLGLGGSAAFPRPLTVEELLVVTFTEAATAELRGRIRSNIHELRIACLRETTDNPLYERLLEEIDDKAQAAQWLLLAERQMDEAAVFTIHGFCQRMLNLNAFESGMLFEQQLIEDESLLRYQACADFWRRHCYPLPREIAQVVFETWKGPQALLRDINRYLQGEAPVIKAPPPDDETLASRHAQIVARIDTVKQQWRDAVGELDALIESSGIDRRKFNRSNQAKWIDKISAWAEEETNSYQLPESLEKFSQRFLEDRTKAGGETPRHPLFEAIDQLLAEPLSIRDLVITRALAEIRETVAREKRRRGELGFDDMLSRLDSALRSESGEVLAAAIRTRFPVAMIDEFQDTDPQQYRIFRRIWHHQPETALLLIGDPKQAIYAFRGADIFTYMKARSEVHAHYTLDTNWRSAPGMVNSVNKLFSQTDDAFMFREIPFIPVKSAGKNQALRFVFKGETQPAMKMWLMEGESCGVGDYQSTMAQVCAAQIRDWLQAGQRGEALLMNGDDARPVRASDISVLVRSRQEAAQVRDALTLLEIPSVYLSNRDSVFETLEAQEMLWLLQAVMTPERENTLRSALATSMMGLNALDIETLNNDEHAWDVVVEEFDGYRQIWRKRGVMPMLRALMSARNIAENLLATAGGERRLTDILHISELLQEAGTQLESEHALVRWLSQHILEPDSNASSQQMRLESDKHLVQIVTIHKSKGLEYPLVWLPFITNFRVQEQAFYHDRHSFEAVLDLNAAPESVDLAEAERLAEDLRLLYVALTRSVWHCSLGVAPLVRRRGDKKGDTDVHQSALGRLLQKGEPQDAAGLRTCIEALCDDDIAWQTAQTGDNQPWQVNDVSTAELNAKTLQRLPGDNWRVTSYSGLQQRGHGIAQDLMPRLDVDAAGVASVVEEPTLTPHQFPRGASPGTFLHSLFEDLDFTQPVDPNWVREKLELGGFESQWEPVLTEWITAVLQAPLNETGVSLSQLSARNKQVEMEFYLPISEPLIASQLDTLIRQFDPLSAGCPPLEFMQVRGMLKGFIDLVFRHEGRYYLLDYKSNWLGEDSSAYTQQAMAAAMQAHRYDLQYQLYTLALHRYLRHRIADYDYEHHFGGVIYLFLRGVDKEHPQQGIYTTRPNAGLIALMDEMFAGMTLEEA

B1: RecC (natural protein, E. coli)
chain: MLRVYHSNRLDVLEALMEFIVERERLDDPFEPEMILVQSTGMAQWLQMTLSQKFGIAANIDFPLPASFIWDMFVRVLPEIPKESAFNKQSMSWKLMTLLPQLLEREDFTLLRHYLTDDSDKRKLFQLSSKAADLFDQYLVYRPDWLAQWETGHLVEGLGEAQAWQAPLWKALVEYTHQLGQPRWHRANLYQRFIETLESATTCPPGLPSRVFICGISALPPVYLQALQALGKHIEIHLLFTNPCRYYWGDIKDPAYLAKLLTRQRRHSFEDRELPLFRDSENAGQLFNSDGEQDVGNPLLASWGKLGRDYIYLLSDLESSQELDAFVDVTPDNLLHNIQSDILELENRAVAGVNIEEFSRSDNKRPLDPLDSSITFHVCHSPQREVEVLHDRLLAMLEEDPTLTPRDIIVMVADIDSYSPFIQAVFGSAPADRYLPYAISDRRARQSHPVLEAFISLLSLPDSRFVSEDVLALLDVPVLAARFDITEEGLRYLRQWVNESGIRWGIDDDNVRELELPATGQHTWRFGLTRMLLGYAMESAQGEWQSVLPYDESSGLIAELVGHLASLLMQLNIWRRGLAQERPLEEWLPVCRDMLNAFFLPDAETEAAMTLIEQQWQAIIAEGLGAQYGDAVPLSLLRDELAQRLDQERISQRFLAGPVNICTLMPMRSIPFKVVCLLGMNDGVYPRQLAPLGFDLMSQKPKRGDRSRRDDDRYLFLEALISAQQKLYISYIGRSIQDNSERFPSVLVQELIDYIGQSHYLPGDEALNCDESEARVKAHLTCLHTRMPFDPQNYQPGERQSYAREWLPAASQAGKAHSEFVQPLPFTLPETVPLETLQRFWAHPVRAFFQMRLQVNFRTEDSEIPDTEPFILEGLSRYQINQQLLNALVEQDDAERLFRRFRAAGDLPYGAFGEIFWETQCQEMQQLADRVIACRQPGQSMEIDLACNGVQITGWLPQVQPDGLLRWRPSLLSVAQGMQLWLEHLVYCASGGNGESRLFLRKDGEWRFPPLAAEQALHYLSQLIEGYREGMSAPLLVLPESGGAWLKTCYDAQNDAMLDDDSTLQKARTKFLQAYEGNMMVRGEGDDIWYQRLWRQLTPETMEAIVEQSQRFLLPLFRFNQS
notes: RecC, E. coli, wild type; Called wild type; source: purified as part of the RecBCD or RecB^ΔNucCD hetero-trimer

How the values were obtained:
[1] = target: T2, RecBΔNucCD RecB:del930-1180 (E. coli) (UniProt P08394+P07648+P04993); assay: competition fluorescence titration; conditions: Buffer M275-10: 20 mM MOPS pH 7.0, 275 mM NaCl, 10 mM MgCl2, 25 °C (M50-10: 50 mM NaCl); cryo-EM buffer 20 mM Tris pH 7.4, 50 mM NaCl, 4 mM MgCl2
RecBCD (E. coli) = assay: competition fluorescence titration; conditions: Buffer M275-10: 20 mM MOPS pH 7.0, 275 mM NaCl, 10 mM MgCl2, 25 °C (M50-10: 50 mM NaCl); cryo-EM buffer 20 mM Tris pH 7.4, 50 mM NaCl, 4 mM MgCl2
[2] = target: T2, RecBΔNucCD RecB:del930-1180 (E. coli); assay: ITC; conditions: Buffer M275-10: 20 mM MOPS pH 7.0, 275 mM NaCl, 10 mM MgCl2, 25 °C (M50-10: 50 mM NaCl); cryo-EM buffer 20 mM Tris pH 7.4, 50 mM NaCl, 4 mM MgCl2
RecC = target: B1; assay: AUC; sedimentation velocity, c(s) distribution; 200 nM protein, Buffer M50-10 (20 mM MOPS pH 7.0, 50 mM NaCl, 10 mM MgCl2), 25 °C, 42,000 rpm, absorbance at 280 nm; conditions: both partners purified
RecB = target: T1, RecB; assay: as above; conditions: both partners purified

Molecule | Ka [1] [M⁻¹] | Ka (RecBCD (E. coli)) [M⁻¹] | Ka [2] | further results
blunt ended 60 bp DNA | 4.7e+07 | 1.4e+07 | – | –
3'-dT15 | 6e+07 | 1e+07 | – | –
3'-dT8 | 7.2e+08 | – | – | –
3'-dT2 | 9.6e+07 | 2.1e+07 | – | –
5'-dT10 | 6.4e+08 | 2.2e+08 | – | –
3'-dT10 | 5.9e+08 | 5e+07 | – | –
dT6-dT6 | – | – | > 1e+09 M⁻¹ | –
5'-dT8 | 2.3e+08 | – | – | –
dT15-dT15 | – | – | > 1e+09 M⁻¹ | –
dT10-dT10 | – | – | > 1e+09 M⁻¹ | –
dT30-dT30 | – | – | 6.8e+08 M⁻¹ and > 1e+09 M⁻¹ | –
5'-dT15 | 6.5e+08 | 2.3e+08 | – | –
5'-dT6 | 1.4e+08 | 1.1e+08 | – | –
dT25-dT25 | – | – | > 1e+09 M⁻¹ | –
3'-dT4 | 3.3e+08 | 4.7e+07 | – | –
dT4-dT4 | – | – | > 1e+09 M⁻¹ | –
dT20-dT20 | – | – | > 1e+09 M⁻¹ | –
3'-dT6 | 9.5e+08 | 1.1e+08 | – | –
RecD (natural protein, E. coli, RecD, E. coli, wild type; Called wild type; Most of RecD has only weak density in the structures solved here; source: purified as part of the RecBCD or RecB^ΔNucCD hetero-trimer) MKLQKQLLEAVEHKQLRPLDVQFALTVAGDEHPAVTLAAALLSHDAGEGHVCLPLSRLENNEASHPLLATCVSEIGELQNWEECLLASQAVSRGDEPTPMILCGDRLYLNRMWCNERTVARFFNEVNHAIEVDEALLAQTLDKLFPVSDEINWQKVAAAVALTRRISVISGGPGTGKTTTVAKLLAALIQMADGERCRIRLAAPTGKAAARLTESLGKALRQLPLTDEQKKRIPEDASTLHRLLGAQPGSQRLRHHAGNPLHLDVLVVDEASMIDLPMMSRLIDALPDHARVIFLGDRDQLASVEAGAVLGDICAYANAGFTAERARQLSRLTGTHVPAGTGTEAASLRDSLCLLQKSYRFGSDSGIGQLAAAINRGDKTAVKTVFQQDFTDIEKRLLQSGEDYIAMLEEALAGYGRYLDLLQARAEPDLIIQAFNEYQLLCALREGPFGVAGLNERIEQFMQQKRKIHRHPHSRWYEGRPVMIARNDSALGLFNGDIGIALDRGQGTRVWFAMPDGNIKSVQPSRLPEHETTWAMTVHKSQGSEFDHAALILPSQRTPVVTRELVYTAVTRARRRLSLYADERILSAAIATRTERRSGLAALFSSRE | – | – | – | binding result (RecC): binds
B1 | – | – | – | binding result (RecB): binds
RecB^ΔNuc (RecB with the nuclease domain, residues 930-1180, deleted) (domain or fragment, E. coli, UniProt P08394 1-929, looked up, RecB, E. coli; the C-terminal nuclease domain RecB^Nuc (RecB930-1180) is deleted, the deletion starts at amino acid 930 and leaves the whole linker (870-929) intact; runs at 105 kDa; Subunit of the RecB^ΔNucCD hetero-trimer; source: purified to homogeneity as part of the RecB^ΔNucCD hetero-trimer, as described previously for RecBCD) MSDVAETLDPLRLPLQGERLIEASAGTGKTFTIAALYLRLLLGLGGSAAFPRPLTVEELLVVTFTEAATAELRGRIRSNIHELRIACLRETTDNPLYERLLEEIDDKAQAAQWLLLAERQMDEAAVFTIHGFCQRMLNLNAFESGMLFEQQLIEDESLLRYQACADFWRRHCYPLPREIAQVVFETWKGPQALLRDINRYLQGEAPVIKAPPPDDETLASRHAQIVARIDTVKQQWRDAVGELDALIESSGIDRRKFNRSNQAKWIDKISAWAEEETNSYQLPESLEKFSQRFLEDRTKAGGETPRHPLFEAIDQLLAEPLSIRDLVITRALAEIRETVAREKRRRGELGFDDMLSRLDSALRSESGEVLAAAIRTRFPVAMIDEFQDTDPQQYRIFRRIWHHQPETALLLIGDPKQAIYAFRGADIFTYMKARSEVHAHYTLDTNWRSAPGMVNSVNKLFSQTDDAFMFREIPFIPVKSAGKNQALRFVFKGETQPAMKMWLMEGESCGVGDYQSTMAQVCAAQIRDWLQAGQRGEALLMNGDDARPVRASDISVLVRSRQEAAQVRDALTLLEIPSVYLSNRDSVFETLEAQEMLWLLQAVMTPERENTLRSALATSMMGLNALDIETLNNDEHAWDVVVEEFDGYRQIWRKRGVMPMLRALMSARNIAENLLATAGGERRLTDILHISELLQEAGTQLESEHALVRWLSQHILEPDSNASSQQMRLESDKHLVQIVTIHKSKGLEYPLVWLPFITNFRVQEQAFYHDRHSFEAVLDLNAAPESVDLAEAERLAEDLRLLYVALTRSVWHCSLGVAPLVRRRGDKKGDTDVHQSALGRLLQKGEPQDAAGLRTCIEALCDDDIAWQTAQTGDNQPWQVNDVSTAELNAKTLQRLPGDNWRVTSYSGLQQRGHGIAQDLMPRLDVDAA | – | – | – | binding result (RecC): binds
